The text below walks through data of patent US12551573B2, “Compositions and methods for the targeting of PCSK9” (Scribe Therapeutics Inc., priority 2022, dated 2026).

Where two headings read alike, the source gives them in different places.

This test relates to HBEGF locus. Format: cell-based, human.
Setting [1] is: repressor domain in dXR, repression of the HBEGF gene, abundance of domain in library after vs before diphtheria toxin selection.

B1: DOMAIN_8746 (protein, listed as Mesocricetus auratus)
chain: SQGLVTFGDVAVVFSQEEWEWLSSEQRSLYWRVMLDNYRNLASLGLCASKPDMIALLEQGKDPCVLKRKTARGLRPDLEAV
B1: the “Log2 (fold change)” value under setting [1] is listed as 3.317.

B2: DOMAIN_8953 (protein, listed as Mus caroli)
chain: MNGMTYDDVHVNFTGEEWALLSPSQKRLYKDVMLETYRNLTAIGYSWEDRNIEEHFQRSRRHGRHERSHTGENPSVYTQCN
For B2, the “Log2 (fold change)” value under setting [1] is reported as 2.5941.

B3: DOMAIN_8982 (protein, listed as Mesocricetus auratus)
chain: MGAVTYDDVHINFTQEEWALLNPSQKRLYKDVMHDTYSNLTATGYSLEDHYIEEHCQSSRRCRRHLQRHKKVHIGEKPYES
For B3, under setting [1], the “Log2 (fold change)” value was 3.1585.

B4: DOMAIN_8036 (protein, listed as Alligator mississippiensis)
chain: AQRWEAFEDVALYFTQKEWELLRDGDKVLYQEQMLRNYQALVSLGYQGPTPDLICRIQRGDMELWVCDDEDPKESMWSEGL
B4: under setting [1], the “Log2 (fold change)” value was 2.3504.

B5: DOMAIN_8282 (protein, listed as Peromyscus maniculatus)
chain: FQNSLTYDDVHINFTCEEWALLDASQKRLYKDVMLETYSNLTAIGYKWEDHNIEEHCQRFRRRGRHKRSRTEERPYECKQC
Consider B5, for which the “Log2 (fold change)” value under setting [1] is listed as 3.9882.

B6: DOMAIN_8340 (protein, listed as Peromyscus maniculatus)
chain: EQDAVTYEDVHVNFTHEEWALLDPSQKSLYKDVMMETYWNLTCIGYKWEDHNIEEHCQSCRRNGSRCVICHSGHNPCEHKG
Take B6: the “Log2 (fold change)” value under setting [1] was 2.2764.

B7: DOMAIN_9329 (protein, listed as Peromyscus maniculatus)
chain: NAVTYNDVHVDFTQEEWALMDPSQRNLYKDVMVETYMNLTAIGYNWEDLEVEEHCQNSLKHGRHKRPHTTEKSCEYMGCGK
With B7, the “Log2 (fold change)” value under setting [1] was 4.263.

B8: DOMAIN_8317 (protein, listed as Mus caroli)
chain: CQALVTFEDVAVTFTDDEWKRLVPVQRALYKAVMLENYESIISLGLPVPRPDLILQFKRRGEPWMRGFHGSEEKAWPESVS
B8: the “Log2 (fold change)” value under setting [1] came to 3.3091.

B9: DOMAIN_8862 (protein)
chain: TLGLLSFNDVSLEFSWEEWQLLDSAQRYLYREVILENYSNLLSVGYHGTKPDLIFRLEQGEEPWILNAKMSTQNCPEVWED
modifications: Marmota monax
In the case of B9, under setting [1], the “Log2 (fold change)” value turned out to be 2.3521.

B10: DOMAIN_9489 (protein, listed as Dipodomys ordii)
chain: LASISFEDLAVTFTEEEWEHLDLGQRNLYQEVMLETYQLLVSLGDQVRLAPPTPGTPLPALPAQPRLLGLPSQPLDRRGTP
Regarding B10, the “Log2 (fold change)” value under setting [1] is reported as 3.0215.

B11: DOMAIN_8618 (protein, listed as Mesocricetus auratus)
chain: MESVSFEDVAVNFTPEEWALLNSSQKRLHRDVMQENFRNLAAIAKNQEDPTLEDDYEYLRKILPFAVQTGYRLCENQDYAE
Turning to B11, under setting [1], the “Log2 (fold change)” value is listed as 2.6363.

B12: DOMAIN_8424 (protein, listed as Peromyscus maniculatus)
chain: MDAVTYEDVQVSFTREEWTLLDPSQKSLYKDVMVETYRNLTAIGYKWEDQNIKKHHQCSRRHGRHERSNSAEKDYECEQCG
Turning to B12, under setting [1], the “Log2 (fold change)” value was 2.7945.

B13: DOMAIN_8492 (protein, listed as Mus musculus)
chain: RERLVSFEDVTVDFSQEEWRRLDSVQRHLYQDVMLEIYSHLLAVGYPVPSPGAIFRIKKRKEARTGEAKLPHPCWCQEVES
As for B13, the “Log2 (fold change)” value under setting [1] amounted to 3.3107.

B14: DOMAIN_9303 (protein)
chain: FKGPVTFKDVTVEFTKEEWKLLTPAQRTLYKDVMLENYNHLVSVGYRVSKPNLVFKLKQGKEPWVLEVEFPRRRCPEELWN
modifications: Marmota monax
As for B14, the “Log2 (fold change)” value under setting [1] came to 2.5344.

B15: DOMAIN_8742 (protein, listed as Peromyscus maniculatus)
chain: MGSVSFEDISLDFTWDEWQDLDSAQRTLYRDVMLENYSSLMFLGHCTTKPELIFKLEHGFGPWSLAEASIQSLPGVHKMTV
Turning to B15, under setting [1], the “Log2 (fold change)” value is recorded as 2.3354.

B16: DOMAIN_8460 (protein, listed as Peromyscus maniculatus)
chain: MNAVTYDDVHVDFTWDEWALLDPSQKNLYKNVMLETYRNLTAIGYKWEEHNINEKFQRSRRNRRHERSHTGEKSYECNQCG
Regarding B16, the “Log2 (fold change)” value under setting [1] is reported as 3.1352.

B17: DOMAIN_9119 (protein, listed as Mesocricetus auratus)
chain: FQNSLTFDDVAVDFTQEEWVLMDQTQRDLYREVMLENYQNLFSAGCEITKPSLISWLEEDLQIGQREDFQEWEMQDTLREQ
Take B17: the “Log2 (fold change)” value under setting [1] turned out to be 2.2985.

B18: DOMAIN_8545 (protein, listed as Rattus norvegicus)
chain: APLPLTFEDVAIYFSEQEWQHLETWQKELYKQVMRTNYETLISLDNGLPKPELISWMELGRENFGSWGEGQKVDRGIRCSV
Consider B18, for which, under setting [1], the “Log2 (fold change)” value was 3.1044.

B19: DOMAIN_9332 (protein, listed as Peromyscus maniculatus)
chain: TENAVTYDDVHVGFTWEEWALLDPSQKNLYKDVMLDTYRNLTTIGYSWEGHNIEEHFQSSRRHERHKRSDTGENSSVYTQC
As to B19, the “Log2 (fold change)” value under setting [1] stood at 3.9002.

B20: DOMAIN_8425 (protein, listed as Peromyscus maniculatus)
chain: HKKSMVFSDVSLDFSQEEWECLGPAQKDLYRDVMLENYSHLLSVAGLHIPKPQVISLLEQGKEPWMIGKELTRGLCSALES
Turning to B20, the “Log2 (fold change)” value under setting [1] came out at 2.8391.

B21: DOMAIN_8555 (protein, listed as Cricetulus griseus)
chain: MAFEDVAVYFSQEEWVFLDAAQRALYRHVMLENFALVDSIGLSISRPRVIIQLQRGEEPWVPNRTNTGPGRGTRRRPSLGS
As to B21, under setting [1], the “Log2 (fold change)” value was 3.2852.

B22: DOMAIN_8881 (protein, listed as Cricetulus griseus)
chain: MAFEDVAVYFSQEEWVFLDAAQRALYRHVMLENFALVDSIGLSISRPRVIIQLQRGEEPWVSNRTNTGPGRGTRRRPSLGS
Turning to B22, under setting [1], the “Log2 (fold change)” value is 3.743.

B23: DOMAIN_9217 (protein, listed as Mesocricetus auratus)
chain: MAFEDVAVYFSQEEWMFLDAAQRALYRHVMLENFALVDSIGLSVSRPRVIIQLQRGEEPWVPNRTNPGPGRSTCRRPSLGS
For B23, the “Log2 (fold change)” value under setting [1] was 3.8919.

B24: DOMAIN_9141 (protein, listed as Mus caroli)
chain: LNSAVTYDDVNVNFTREEWALLDSSQKSLYKDVMLETYRNLTAIGYNWEGHNIEEHCQSSRRHARTHKRTHTGEKSYECDQ
Turning to B24, the “Log2 (fold change)” value under setting [1] turned out to be 3.035.

B25: DOMAIN_9960 (protein, listed as Octodon degus)
chain: AVTMEDVTVTFTNEEWALLNPAQKRLYGDVMWETFRTISAIGRTWDSQQMEEEYKNYLRNLSNEEVAKCCRYTTFNQHENI
As to B25, where the note is “high-throughput screen of dXR repression of the HBEGF gene, change in abundance of each domain in the library before and after diphtheria toxin selection”, the “Log2 (fold change)” value was determined as 3.4751.

B26: DOMAIN_8712 (protein, listed as Mesocricetus auratus)
chain: PADRDAVTYDDVHIGFTQEEWVLLNPSQKSLYKDVMLDTYRNLTAIGYRWQDHNIEEHCENSRRHRRKFSCTTKPYESLQN
On to B26, for which the “Log2 (fold change)” value under setting [1] is 2.7776.
